Laboratory results published in patent publication US20250218531A1 (ABSCI, published 2025).
Where two headings read alike, the source gives them in different places.

Assays:
[1] = target: T1, human epidermal growth factor receptor 2 (HER2) extracellular domain (human, UniProt P04626 23-629); assay: SPR, Fab format
[2] = target: T1, human epidermal growth factor receptor …; assay: SPR, Fab format; remark: listed apart in the source

Binder	Kd [1] [nM]	log(KD (M)) [1] [log M]	Kd [2] [nM]	log(KD (M)) [2] [log M]
De novo trastuzumab HCDR3 variant ARDYDFGLSVGAV (SEQ ID NO: 486) (Fab, V domains shown) VH: EVQLVESGGGLVQPGGSLRLSCAASGFNIKDTYIHWVRQAPGKGLEWVARIYPTNGYTRYADSVKGRFTISADTSKNTAYLQMNSLRAEDTAVYYCARDYDFGLSVGAVWGQGTLVTVSS VL: not shown	358	-6.45	–	–
Multi-step trastuzumab HCDR3 variant ARYSYYGGGYFDY (SEQ ID NO: 515) (Fab, V domains shown) VH: EVQLVESGGGLVQPGGSLRLSCAASGFNIKDTYIHWVRQAPGKGLEWVARIYPTNGYTRYADSVKGRFTISADTSKNTAYLQMNSLRAEDTAVYYCARYSYYGGGYFDYWGQGTLVTVSS VL: not shown	–	–	478	-6.32
De novo trastuzumab HCDR3 variant ARNYYGAAYYFDY (SEQ ID NO: 495) (Fab, V domains shown) VH: EVQLVESGGGLVQPGGSLRLSCAASGFNIKDTYIHWVRQAPGKGLEWVARIYPTNGYTRYADSVKGRFTISADTSKNTAYLQMNSLRAEDTAVYYCARNYYGAAYYFDYWGQGTLVTVSS VL: not shown	570	-6.24	–	–
Multi-step trastuzumab HCDR3 variant TRYGSFGYYALDS (SEQ ID NO: 530) (Fab, V domains shown) VH: EVQLVESGGGLVQPGGSLRLSCAASGFNIKDTYIHWVRQAPGKGLEWVARIYPTNGYTRYADSVKGRFTISADTSKNTAYLQMNSLRAEDTAVYYCTRYGSFGYYALDSWGQGTLVTVSS VL: not shown	–	–	57.6	-7.24
De novo trastuzumab HCDR3 variant ARSNNWYSYSFQF (SEQ ID NO: 478) (Fab, V domains shown) VH: EVQLVESGGGLVQPGGSLRLSCAASGFNIKDTYIHWVRQAPGKGLEWVARIYPTNGYTRYADSVKGRFTISADTSKNTAYLQMNSLRAEDTAVYYCARSNNWYSYSFQFWGQGTLVTVSS VL: not shown	278	-6.56	–	–
Multi-step trastuzumab HCDR3 variant ARYGGSSYYYYDY (SEQ ID NO: 529) (Fab, V domains shown) VH: EVQLVESGGGLVQPGGSLRLSCAASGFNIKDTYIHWVRQAPGKGLEWVARIYPTNGYTRYADSVKGRFTISADTSKNTAYLQMNSLRAEDTAVYYCARYGGSSYYYYDYWGQGTLVTVSS VL: not shown	–	–	72.3	-7.14
Multi-step trastuzumab HCDR3 variant ASSGGSSSYSYYY (SEQ ID NO: 513) (Fab, V domains shown) VH: EVQLVESGGGLVQPGGSLRLSCAASGFNIKDTYIHWVRQAPGKGLEWVARIYPTNGYTRYADSVKGRFTISADTSKNTAYLQMNSLRAEDTAVYYCASSGGSSSYSYYYWGQGTLVTVSS VL: not shown	–	–	1720	-5.76
Multi-step trastuzumab HCDR3 variant TRYSYYGYHAMDY (SEQ ID NO: 549) (Fab, V domains shown) VH: EVQLVESGGGLVQPGGSLRLSCAASGFNIKDTYIHWVRQAPGKGLEWVARIYPTNGYTRYADSVKGRFTISADTSKNTAYLQMNSLRAEDTAVYYCTRYSYYGYHAMDYWGQGTLVTVSS VL: not shown	–	–	354	-6.45
Multi-step trastuzumab HCDR3 variant ARYSYYGGGAFDY (SEQ ID NO: 543) (Fab, V domains shown) VH: EVQLVESGGGLVQPGGSLRLSCAASGFNIKDTYIHWVRQAPGKGLEWVARIYPTNGYTRYADSVKGRFTISADTSKNTAYLQMNSLRAEDTAVYYCARYSYYGGGAFDYWGQGTLVTVSS VL: not shown	–	–	191	-6.72
Multi-step trastuzumab HCDR3 variant ARYGGRGYYSFDY (SEQ ID NO: 533) (Fab, V domains shown) VH: EVQLVESGGGLVQPGGSLRLSCAASGFNIKDTYIHWVRQAPGKGLEWVARIYPTNGYTRYADSVKGRFTISADTSKNTAYLQMNSLRAEDTAVYYCARYGGRGYYSFDYWGQGTLVTVSS VL: not shown	–	–	26.2	-7.58
De novo trastuzumab HCDR3 variant ARGYAYYVAGREY (SEQ ID NO: 493) (Fab, V domains shown) VH: EVQLVESGGGLVQPGGSLRLSCAASGFNIKDTYIHWVRQAPGKGLEWVARIYPTNGYTRYADSVKGRFTISADTSKNTAYLQMNSLRAEDTAVYYCARGYAYYVAGREYWGQGTLVTVSS VL: not shown	496	-6.3	–	–
De novo trastuzumab HCDR3 variant ATSGTASWQHYGV (SEQ ID NO: 481) (Fab, V domains shown) VH: EVQLVESGGGLVQPGGSLRLSCAASGFNIKDTYIHWVRQAPGKGLEWVARIYPTNGYTRYADSVKGRFTISADTSKNTAYLQMNSLRAEDTAVYYCATSGTASWQHYGVWGQGTLVTVSS VL: not shown	322	-6.49	–	–
De novo trastuzumab HCDR3 variant AWASGYGGYGMDY (SEQ ID NO: 488) (Fab, V domains shown) VH: EVQLVESGGGLVQPGGSLRLSCAASGFNIKDTYIHWVRQAPGKGLEWVARIYPTNGYTRYADSVKGRFTISADTSKNTAYLQMNSLRAEDTAVYYCAWASGYGGYGMDYWGQGTLVTVSS VL: not shown	368	-6.43	–	–
Multi-step trastuzumab HCDR3 variant SRYSYSGGGSFDY (SEQ ID NO: 537) (Fab, V domains shown) VH: EVQLVESGGGLVQPGGSLRLSCAASGFNIKDTYIHWVRQAPGKGLEWVARIYPTNGYTRYADSVKGRFTISADTSKNTAYLQMNSLRAEDTAVYYCSRYSYSGGGSFDYWGQGTLVTVSS VL: not shown	–	–	362	-6.44
De novo trastuzumab HCDR3 variant ARYHYRTIGSFGY (SEQ ID NO: 487) (Fab, V domains shown) VH: EVQLVESGGGLVQPGGSLRLSCAASGFNIKDTYIHWVRQAPGKGLEWVARIYPTNGYTRYADSVKGRFTISADTSKNTAYLQMNSLRAEDTAVYYCARYHYRTIGSFGYWGQGTLVTVSS VL: not shown	367	-6.44	–	–
Multi-step trastuzumab HCDR3 variant ARYGGSSYYYFDY (SEQ ID NO: 528) (Fab, V domains shown) VH: EVQLVESGGGLVQPGGSLRLSCAASGFNIKDTYIHWVRQAPGKGLEWVARIYPTNGYTRYADSVKGRFTISADTSKNTAYLQMNSLRAEDTAVYYCARYGGSSYYYFDYWGQGTLVTVSS VL: not shown	–	–	97.2	-7.01
Multi-step trastuzumab HCDR3 variant ARYSGSSYYYYDY (SEQ ID NO: 536) (Fab, V domains shown) VH: EVQLVESGGGLVQPGGSLRLSCAASGFNIKDTYIHWVRQAPGKGLEWVARIYPTNGYTRYADSVKGRFTISADTSKNTAYLQMNSLRAEDTAVYYCARYSGSSYYYYDYWGQGTLVTVSS VL: not shown	–	–	423	-6.37
De novo trastuzumab HCDR3 variant ARLGASHGYLYDD (SEQ ID NO: 484) (Fab, V domains shown) VH: EVQLVESGGGLVQPGGSLRLSCAASGFNIKDTYIHWVRQAPGKGLEWVARIYPTNGYTRYADSVKGRFTISADTSKNTAYLQMNSLRAEDTAVYYCARLGASHGYLYDDWGQGTLVTVSS VL: not shown	328	-6.48	–	–
Multi-step trastuzumab HCDR3 variant ARYSSSGGSAFDY (SEQ ID NO: 542) (Fab, V domains shown) VH: EVQLVESGGGLVQPGGSLRLSCAASGFNIKDTYIHWVRQAPGKGLEWVARIYPTNGYTRYADSVKGRFTISADTSKNTAYLQMNSLRAEDTAVYYCARYSSSGGSAFDYWGQGTLVTVSS VL: not shown	–	–	1990	-5.7
De novo trastuzumab HCDR3 variant ATGLSPSGSNGPY (SEQ ID NO: 491) (Fab, V domains shown) VH: EVQLVESGGGLVQPGGSLRLSCAASGFNIKDTYIHWVRQAPGKGLEWVARIYPTNGYTRYADSVKGRFTISADTSKNTAYLQMNSLRAEDTAVYYCATGLSPSGSNGPYWGQGTLVTVSS VL: not shown	444	-6.35	–	–
Multi-step trastuzumab HCDR3 variant ARYGGSSNYYYDY (SEQ ID NO: 518) (Fab, V domains shown) VH: EVQLVESGGGLVQPGGSLRLSCAASGFNIKDTYIHWVRQAPGKGLEWVARIYPTNGYTRYADSVKGRFTISADTSKNTAYLQMNSLRAEDTAVYYCARYGGSSNYYYDYWGQGTLVTVSS VL: not shown	–	–	441	-6.36
Multi-step trastuzumab HCDR3 variant ARYYGSSSYYFAY (SEQ ID NO: 75) (Fab, V domains shown, also called AI Design 9) VH: EVQLVESGGGLVQPGGSLRLSCAASGFNIKDTYIHWVRQAPGKGLEWVARIYPTNGYTRYADSVKGRFTISADTSKNTAYLQMNSLRAEDTAVYYCARYYGSSSYYFAYWGQGTLVTVSS VL: not shown	–	–	60.6	-7.22
Multi-step trastuzumab HCDR3 variant ARYSGDSYYYYDY (SEQ ID NO: 550) (Fab, V domains shown) VH: EVQLVESGGGLVQPGGSLRLSCAASGFNIKDTYIHWVRQAPGKGLEWVARIYPTNGYTRYADSVKGRFTISADTSKNTAYLQMNSLRAEDTAVYYCARYSGDSYYYYDYWGQGTLVTVSS VL: not shown	–	–	366	-6.44
Multi-step trastuzumab HCDR3 variant ARYGGSYFYYYSY (SEQ ID NO: 517) (Fab, V domains shown) VH: EVQLVESGGGLVQPGGSLRLSCAASGFNIKDTYIHWVRQAPGKGLEWVARIYPTNGYTRYADSVKGRFTISADTSKNTAYLQMNSLRAEDTAVYYCARYGGSYFYYYSYWGQGTLVTVSS VL: not shown	–	–	7.31	-8.14
Multi-step trastuzumab HCDR3 variant ARYGGRSSYYFDY (SEQ ID NO: 545) (Fab, V domains shown) VH: EVQLVESGGGLVQPGGSLRLSCAASGFNIKDTYIHWVRQAPGKGLEWVARIYPTNGYTRYADSVKGRFTISADTSKNTAYLQMNSLRAEDTAVYYCARYGGRSSYYFDYWGQGTLVTVSS VL: not shown	–	–	257	-6.59
Multi-step trastuzumab HCDR3 variant SRYGYSGYGAFDY (SEQ ID NO: 521) (Fab, V domains shown) VH: EVQLVESGGGLVQPGGSLRLSCAASGFNIKDTYIHWVRQAPGKGLEWVARIYPTNGYTRYADSVKGRFTISADTSKNTAYLQMNSLRAEDTAVYYCSRYGYSGYGAFDYWGQGTLVTVSS VL: not shown	–	–	1050	-5.98
De novo trastuzumab HCDR3 variant AYMGSHTIYSFEH (SEQ ID NO: 479) (Fab, V domains shown) VH: EVQLVESGGGLVQPGGSLRLSCAASGFNIKDTYIHWVRQAPGKGLEWVARIYPTNGYTRYADSVKGRFTISADTSKNTAYLQMNSLRAEDTAVYYCAYMGSHTIYSFEHWGQGTLVTVSS VL: not shown	301	-6.52	–	–
Multi-step trastuzumab HCDR3 variant ARYRGRGFYSFDY (SEQ ID NO: 532) (Fab, V domains shown) VH: EVQLVESGGGLVQPGGSLRLSCAASGFNIKDTYIHWVRQAPGKGLEWVARIYPTNGYTRYADSVKGRFTISADTSKNTAYLQMNSLRAEDTAVYYCARYRGRGFYSFDYWGQGTLVTVSS VL: not shown	–	–	22	-7.66
De novo trastuzumab HCDR1|2|3 variant GFNVSSSY / IYPENGST / SRYSYYGGYAFDY (Fab, V domains shown, also called AI Design 1) VH: EVQLVESGGGLVQPGGSLRLSCAASGFNVSSSYIHWVRQAPGKGLEWVARIYPENGSTRYADSVKGRFTISADTSKNTAYLQMNSLRAEDTAVYYCSRYSYYGGYAFDYWGQGTLVTVSS VL: not shown	–	–	225	-6.65
